# Experimental data as given in EP4349860A1 (Fundació Institut Hospital Del Mar D'Investigacions …, dated 2024).
# Like-named read-outs stand apart in the source and are kept apart here.
# How the values were obtained:
# [1] = target: T1, RBD of the SARS-CoV-2 spike protein, Delta (B.1.617.2) variant (SARS-CoV-2 (Delta variant), UniProt P0DTC2 319-541); assay: ELISA, plate coated with RBD at 2 µg/ml, anti-human IgG-HRP detection
# T1 construct: domain: RBD
# [2] = target: T2, RBD of the SARS-CoV-2 spike protein, Beta (B.1.351) variant (SARS-CoV-2 (Beta variant), UniProt P0DTC2 319-541); assay: as above
# T2 construct: domain: RBD
# [3] = target: T3, RBD of the SARS-CoV-2 spike protein, Gamma (P.1) variant (SARS-CoV-2 (Gamma variant), UniProt P0DTC2 319-541); assay: as above
# T3 construct: domain: RBD
# [4] = target: T4, SARS-CoV-2 spike protein, Omicron BA.2 variant, on pseudovirus (SARS-CoV-2 (Omicron BA.2 variant)); assay: cell-based or functional assay
# [5] = target: SARS-CoV-2 spike protein, Mu (B.1.621) variant, on pseudovirus (SARS-CoV-2 (Mu variant)); assay: cell-based or functional assay
# [6] = target: T5, SARS-CoV-2 spike protein, Alpha (B.1.1.7) variant, on pseudovirus (SARS-CoV-2 (Alpha variant)); assay: cell-based or functional assay
# [7] = target: T6, SARS-CoV-2 spike protein, Gamma (P.1) variant, on pseudovirus (SARS-CoV-2 (Gamma variant)); assay: cell-based or functional assay
# [8] = target: T7, SARS-CoV-2 spike protein, Delta (B.1.617.2) variant, on pseudovirus (SARS-CoV-2 (Delta variant)); assay: cell-based or functional assay
# [9] = target: T8, SARS-CoV-2 spike protein, Beta (B.1.351) variant, on pseudovirus (SARS-CoV-2 (Beta variant)); assay: cell-based or functional assay
# [10] = target: T4, SARS-CoV-2 spike protein, Omicron BA.2 …; assay: cell-based or functional assay; remark: listed apart in the source
# [11] = target: T5, SARS-CoV-2 spike protein, Alpha …; assay: cell-based or functional assay; remark: listed apart in the source
# [12] = target: T6, SARS-CoV-2 spike protein, Gamma (P.1) …; assay: cell-based or functional assay; remark: listed apart in the source
# [13] = target: T7, SARS-CoV-2 spike protein, Delta …; assay: cell-based or functional assay; remark: listed apart in the source
# [14] = target: T8, SARS-CoV-2 spike protein, Beta …; assay: cell-based or functional assay; remark: listed apart in the source
# [15] = target: SARS-CoV-2 spike protein, Omicron BA.4/BA.5 variants, on pseudovirus (SARS-CoV-2 (Omicron BA.4/BA.5 variants)); assay: cell-based or functional assay
binder,measurement,setting,value
"mAb17T2 (antibody, V domains shown) VH: QVQLVQSGPEVKKPGTSVKVSCKAPVFTFSISAVQWVRQARGQRLEWIGWIVVGSGNTNYAQNFQERVTITTDMSTGTVYMELSGLRSEDTAMYYCAAPYCNRTTCYDGFDLWGQGTMVTVSS VL: EIVLTQSPGTLSLSPGERATLSCRASQSISSNYLAWYQQKPGQAPRLLIYGASSRATGIPDRFSGSGSGTDFTLSINRLEPEDFAMYYCQHYGGLSRWTFGQGTKVEIKR",EC50,[1],3.38 ng/mL
same,EC50,[2],3.76 ng/mL
same,EC50,[3],3.08 ng/mL
same,fold neutralizing activity compared to S2E12,[4],13.5 fold
same,fold neutralizing activity compared to S309,[4],41 fold
same,"IC50 (µg/ml), pseudotyped virus neutralization",[5],0.00907 µg/mL
same,"IC80 (µg/ml), pseudotyped virus neutralization",[5],0.014 µg/mL
same,"IC90 (µg/ml), pseudotyped virus neutralization",[5],0.0181 µg/mL
same,"IC50 (µg/ml), pseudotyped virus neutralization",[6],0.00666 µg/mL
same,"IC80 (µg/ml), pseudotyped virus neutralization",[6],0.014 µg/mL
same,"IC90 (µg/ml), pseudotyped virus neutralization",[6],0.0216 µg/mL
same,"IC50 (µg/ml), pseudotyped virus neutralization",[7],0.0126 µg/mL
same,"IC80 (µg/ml), pseudotyped virus neutralization",[7],0.0218 µg/mL
same,"IC90 (µg/ml), pseudotyped virus neutralization",[7],0.0302 µg/mL
same,"IC50 (µg/ml), pseudotyped virus neutralization",[8],0.0105 µg/mL
same,"IC80 (µg/ml), pseudotyped virus neutralization",[8],0.0165 µg/mL
same,"IC90 (µg/ml), pseudotyped virus neutralization",[8],0.0215 µg/mL
same,"IC50 (µg/ml), pseudotyped virus neutralization",[9],0.0022 µg/mL
same,"IC80 (µg/ml), pseudotyped virus neutralization",[9],0.00481 µg/mL
same,"IC90 (µg/ml), pseudotyped virus neutralization",[9],0.0076 µg/mL
same,"IC50 (µg/ml), pseudotyped virus neutralization",[10],0.0101 µg/mL
same,"IC50 (µg/ml), pseudotyped virus neutralization",[11],0.0069 µg/mL
same,"IC50 (µg/ml), pseudotyped virus neutralization",[12],0.0083 µg/mL
same,"IC50 (µg/ml), pseudotyped virus neutralization",[13],0.0096 µg/mL
same,"IC50 (µg/ml), pseudotyped virus neutralization",[14],0.0027 µg/mL
same,"IC50 (µg/ml), pseudotyped virus neutralization",[15],0.00203 µg/mL
